Positions count from the first letter of the chain named. In names and notes the source's numbering stands.
T1: extracellular domain of human KLB expressed with C-terminal HA and hexahistidine tags (human, UniProt Q86Z14 1-996)
T1 construct: also called hKLB-HA-6His; hKLB-HA-6his
T1 sequence: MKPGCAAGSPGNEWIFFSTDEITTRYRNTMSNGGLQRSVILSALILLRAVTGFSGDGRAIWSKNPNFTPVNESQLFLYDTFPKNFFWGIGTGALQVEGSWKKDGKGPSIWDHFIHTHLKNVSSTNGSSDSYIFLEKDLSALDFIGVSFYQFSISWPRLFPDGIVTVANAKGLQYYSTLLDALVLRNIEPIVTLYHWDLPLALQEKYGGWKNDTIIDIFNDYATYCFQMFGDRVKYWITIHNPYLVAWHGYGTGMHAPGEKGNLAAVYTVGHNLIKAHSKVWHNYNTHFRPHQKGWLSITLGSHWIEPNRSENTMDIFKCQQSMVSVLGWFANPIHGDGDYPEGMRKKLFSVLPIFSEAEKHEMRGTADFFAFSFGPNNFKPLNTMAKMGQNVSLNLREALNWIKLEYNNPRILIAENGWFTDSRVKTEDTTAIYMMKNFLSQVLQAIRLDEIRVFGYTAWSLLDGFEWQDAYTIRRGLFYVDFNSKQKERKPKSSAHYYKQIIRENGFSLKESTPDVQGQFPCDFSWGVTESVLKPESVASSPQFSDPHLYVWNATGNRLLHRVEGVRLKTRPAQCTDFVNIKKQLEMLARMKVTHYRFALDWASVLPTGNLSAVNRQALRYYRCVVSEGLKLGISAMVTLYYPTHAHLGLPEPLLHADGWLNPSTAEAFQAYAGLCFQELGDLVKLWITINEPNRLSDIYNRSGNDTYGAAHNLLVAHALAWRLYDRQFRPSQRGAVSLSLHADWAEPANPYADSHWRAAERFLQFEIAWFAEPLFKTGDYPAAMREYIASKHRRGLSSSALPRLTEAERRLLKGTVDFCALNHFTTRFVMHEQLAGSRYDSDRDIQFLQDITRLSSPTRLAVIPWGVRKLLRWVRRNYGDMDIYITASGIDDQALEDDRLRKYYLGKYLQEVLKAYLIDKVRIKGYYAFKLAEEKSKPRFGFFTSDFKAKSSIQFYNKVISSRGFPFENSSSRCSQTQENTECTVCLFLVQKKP

T2: extracellular domain of human FGFR1c expressed with C-terminal V5 and hexahistidine tags (human, UniProt P11362 22-376)
T2 construct: also called hFGFR1c-V5-6His
T2 sequence: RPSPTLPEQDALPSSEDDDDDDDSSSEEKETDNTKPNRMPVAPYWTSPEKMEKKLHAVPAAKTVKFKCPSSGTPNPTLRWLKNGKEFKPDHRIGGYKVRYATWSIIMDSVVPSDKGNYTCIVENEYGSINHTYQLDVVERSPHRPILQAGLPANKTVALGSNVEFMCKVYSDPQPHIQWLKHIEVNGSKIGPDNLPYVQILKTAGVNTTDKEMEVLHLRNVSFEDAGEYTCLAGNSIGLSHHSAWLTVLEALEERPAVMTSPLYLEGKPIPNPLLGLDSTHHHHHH

B1: H4H8881P (antibody, V domains shown)
VH: QVQLVQSGAEVKKPGASVKVSCKASGYTFTSYVIHWVRQAPGQRLEWMGWSNAANGDTKYSQEFQDRVTFTRDTSASTAYMELSSLRSEDMAVYYCARWNWNYGAFDIWGQGTMVTVSS
VL: DIQMTQSPSSLSASVGDRVTITCQASQDINNYLHWYQQKSGKAPNLLIYDASILETGVPSRFSGSGSGTDFTFTISSLQPEDIATYYCQQYDNLPYTFGQGTKLEIK
notes: human IgG4 Fc (H4H prefix)
B2: H4H8880P (antibody, V domains shown)
VH: EVQLVESGGGVVQPGGSLRLSCAASGFTFSLYAMSWVRQAPGKGLEWVSAISGSAHGAYYADSVKGRFTISRDNSKNSLYLQMNSLRAEDTAIYYCAKDLVIAVAGTFDYWGQGTLVTVSS
VL: DIQMTQSPSSLSASVGDRVTITCRASQIISTYLNWYQQKPGKAPKILIYTASSLKSGVPSRFSGSGSGTDFTLTISSLQPEDFATYYCQQTYSSPRFTFGPGTKVDIK
notes: human IgG4 Fc (H4H prefix)
B3: H4H8878P (antibody, V domains shown)
VH: QVQLVESGGGVVQPGRSLRLSCAASGFTLNTYGMHWIRQTPGKGLEWVSLISYDETKEYYVDSVKGRFTISRDNSKNTLYLQMNSVRVEDTAVYYCAKPLTGSTDYYYGLDVWGQGTTVTVSS
VL: DIQMTQSPSYVSASVGDRVIITCRASQDISSWLAWYQQKPGKAPKLLIYVTSSLESGVPSRFSGSGSGTDFTLTISGLQPEDFATYYCQQVKSFPPTFGPGTKVDIK
notes: human IgG4 Fc (H4H prefix)
B4: H1H8897P (antibody, V domains shown)
VH: QVQLVESGGGLVKPGGSLRLSCAAAGFTFSDYYMSWIRQAPGQGLEWVSYISPSGSTTYYADSVQGRFTISRDNAKSSLYLQMNSLRAEDTAVYYCARTGIQLWSVYFDYWGQGTLVTVSS
VL: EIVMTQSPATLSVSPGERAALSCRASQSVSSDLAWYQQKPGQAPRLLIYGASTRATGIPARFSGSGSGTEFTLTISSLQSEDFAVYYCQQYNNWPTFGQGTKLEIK
notes: H1H Fc prefix (human Fc)
B5: H1H8898P (antibody, V domains shown)
VH: B4 VH with A25S, T28I, Q43K, E46D, V48I, T58I, Q65K, S77N, E89D
VL: EIVMTQSPATLSVSPGERATLSCRASQSVGSNLAWYQQKPGQAPRLLIYGASTRANGIPARFSGSGSGTEFTLTISGLQSEDFAVYYCQQYNNWPTFGQGTKLEIK
notes: H1H Fc prefix (human Fc)
B6: H4H8871P (antibody, V domains shown)
VH: QVQLQESGPGLVKPSETLSLTCTVSGASISSYYWSWIRQPPGKGLEWIGYIYSSGIIKYNPSLKSRVTISADTSKNQFSLKLSSVTAADTAVYYCARHGIFGVMEYFQRWGQGTLVTVSS
VL: DIQMTQSPSSLSASIGDRVTITCQASQDIGNFLNWYHQKPGKAPTLLIYDASNMETGVPSRFRGSGSGTYFTFIISSLQPEDVATYYCQQYDNLPLTFGGGTKVEIK
notes: human IgG4 Fc (H4H prefix)

target: T3, human KLB and human FGFR1c co-expressed on HEK293/hKLB/hFGFR1c/SRE-luc cells (human, UniProt Q86Z14 1-1044; P11362 22-822); assay: cell-based or functional assay

| EC50, SRE-luc activation without ligand [nM] | Maximum Activation (%) without ligand [%] | Binder |
| --- | --- | --- |
| 0.072 | 7 | B1 |
| 0.054 | 1 | B2 |
| 0.41 | 1 | B3 |
| 19 | 1 | B4 |
| 8.9 | 3 | B5 |
| 0.18 | 5 | B6 |

target: T3, human KLB and human FGFR1c co-expressed …; assay: cell-based or functional assay; remark: another data set of the same source

| IC50, inhibition of 1 nM hFGF21 [nM] | Maximum Inhibition (%) of 1 nM hFGF21 [%] | Binder |
| --- | --- | --- |
| 0.067 | 77 | B1 |
| 0.15 | 39 | B2 |
| 0.23 | 38 | B3 |
| 0.97 | 101 | B4 |
| 2 | 97 | B5 |
| 0.38 | 92 | B6 |

target: M. fascicularis KLB and human FGFR1c co-expressed on HEK293/MfKLB/hFGFR1c/SRE-Luc cells (M. fascicularis; human, UniProt A0A2K5WB58 1-1044); assay: cell-based or functional assay

| EC50, SRE-luc activation without ligand [nM] | IC50, inhibition of 10 nM mfFGF21 [nM] | Maximum Activation (%) without ligand [%] | Maximum Inhibition (%) of 10 nM mfFGF21 [%] | Binder |
| --- | --- | --- | --- | --- |
| 0.02 | 0.046 | 3 | 77 | B1 |
| – | 0.12 | – | 39 | B2 |
| – | 0.12 | – | 38 | B3 |
| – | 5.2 | – | 101 | B4 |
| – | 12 | – | 97 | B5 |
| 0.13 | 0.39 | 4 | 92 | B6 |

target: T1, extracellular domain of human KLB …; assay: SPR, mAb captured, 25 C
Procedure, shortened: (§1)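 First, an anti-mouse or anti-human Fc antibody is amine-coupled to the chip. Next, the mAb is captured, then soluble tagged receptor associates for 3.5 to 4 minutes and dissociates 8-12 minutes in HBST buffer. Finally, 1:1 fitting gives ka and kd.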

| 20 nM hKLB-HA-6His Bind (RU) | Kd [nM] | koff [s⁻¹] | kon [M⁻¹ s⁻¹] | t1/2 [min] | Binder |
| --- | --- | --- | --- | --- | --- |
| 92.7 | 0.124 | 0.000178 | 1.44e+06 | 65 | B1 |
| 68.1 | 0.64 | 0.000287 | 448000 | 40.3 | B2 |
| 28.4 | 1.25 | 0.000213 | 170000 | 54.3 | B3 |
| -0.4 | – | – | – | – | B4 |
| -0.2 | – | – | – | – | B5 |
| -0.7 | – | – | – | – | B6 |

target: T2, extracellular domain of human FGFR1c …; assay: SPR, mAb captured, 25 C
Procedure, shortened: as §1

| 180 nM hFGFR1c-V5-6His Bind (RU) | binding result | Binder |
| --- | --- | --- |
| 0.3 | no binding (tested: 180 nM) | B1 |
| 0.4 | no binding (tested: 180 nM) | B2 |
| 0.4 | no binding (tested: 180 nM) | B3 |
| 0.9 | no binding (tested: 180 nM) | B4 |
| 2.9 | no binding (tested: 180 nM) | B5 |
| 0.4 | – | B6 |

target: T1, extracellular domain of human KLB …; assay: SPR, mAb captured, 37 C
Procedure, shortened: as §1

| 20 nM hKLB-HA-6His Bind (RU) | Kd [nM] | koff [s⁻¹] | kon [M⁻¹ s⁻¹] | t1/2 [min] | Binder |
| --- | --- | --- | --- | --- | --- |
| 101 | 0.32 | 0.000463 | 1.45e+06 | 24.9 | B1 |
| 148 | 0.945 | 0.000526 | 556000 | 22 | B2 |
| 101 | 0.305 | 0.000241 | 790000 | 48 | B3 |
| 1.9 | – | – | – | – | B4 |
| -1.9 | – | – | – | – | B5 |
| -0.9 | – | – | – | – | B6 |

target: T2, extracellular domain of human FGFR1c …; assay: SPR, mAb captured, 37 C
Procedure, shortened: as §1

| 180 nM hFGFR1c-V5-6His Bind (RU) | Binder |
| --- | --- |
| 0 | B1 |
| 0.1 | B2 |
| 0.8 | B3 |
| 0.7 | B4 |
| 0.4 | B5 |
| -1.4 | B6 |
